Test results published in publication PMC9684555, “Structure- and computational-aided engineering of an oxidase to produce isoeugenol from a lignin-derived compound” (Nature Communications, 2022).

How the values were obtained:
purified protein [1] = substrate: CCCc1ccc(O)c(OC)c1; assay: purified protein; type: biochemical, Rhodococcus jostii; details: 50 mM KPi pH 7.5, 10% v/v DMSO, 10 µM to 1 mM substrate, O2 co-substrate, 1.0 µM enzyme
purified protein [2] = substrate: COc1cc(CO)ccc1O; assay: purified protein; type: biochemical, Rhodococcus jostii; details: 50 mM KPi pH 7.5, O2 co-substrate, 0.05 µM enzyme

B1: EUGO (eugenol oxidase) (Rhodococcus jostii RHA1) (protein)
chain: MTRTLPPGVSDERFDAALQRFRDVVGDKWVLSTADELEAFRDPYPVGAAEANLPSAVVSPESTEQVQDIVRIANEYGIPLSPVSTGKNNGYGGAAPRLSGSVIVKTGERMNRILEVNEKYGYALLEPGVTYFDLYEYLQSHDSGLMLDCPDLGWGSVVGNTLDRGVGYTPYGDHFMWQTGLEVVLPQGEVMRTGMGALPGSDAWQLFPYGFGPFPDGMFTQSNLGIVTKMGIALMQRPPASQSFLITFDKEEDLEQIVDIMLPLRINMAPLQNVPVLRNIFMDAAAVSKRTEWFDGDGPMPAEAIERMKKDLDLGFWNFYGTLYGPPPLIEMYYGMIKEAFGKIPGARFFTHEERDDRGGHVLQDRHKINNGIPSLDELQLLDWVPNGGHIGFSPVSAPDGREAMKQFEMVRNRANEYNKDYAAQFIIGLREMHHVCLFIYDTAIPEAREEILQMTKVLVREAAEAGYGEYRTHNALMDDVMATFNWGDGALLKFHEKIKDALDPNGIIAPGKSGIWSQRFRGQNL
notes: full length, 526 residues, C-terminal His6 tag (pBAD-EUGO-His6x), E. coli NEB10beta; covalent FAD; homodimer; mutants for crystals from His-SUMO fusion, tag cleaved
Km (purified protein [1]): 3.3 ± 0.9 µM
kcat (purified protein [1]): 0.008 ± 0.0003 s⁻¹
Km (purified protein [2]): 43.0 ± 2.2 µM
kcat (purified protein [2]): 6.8 ± 0.2 s⁻¹
